{
  "source": "paper PMC6155162",
  "about": "“Identification of mesothelioma-specific sialylated epitope recognized with monoclonal antibody SKM9-2 in a mucin-like membrane protein HEG1” (Scientific Reports, 2018)",
  "molecules": {"B1": {"name": "1 kb: FLAG-tagged N-terminal deletion mutant hHEG1 (1086-1481) (protein)", "chain": "MSALLILALVGAAVADYKDDDDKLAAANSSIDLVNSCAVNPCLHNGECVADNTSRGYHCRCPPSWQGDDCSVDVNECLSNPCPSTAMCNNTQGSFICKCPVGYQLEKGICNLVRTFVTEFKLKRTFLNTTVEKHSDLQEVENEITKTLNMCFSALPSYIRSTVHASRESNAVVISLQTTFSLASNVTLFDLADRMQKCVNSCKSSAEVCQLLGSQRRIFRAGSLCKRKSPECDKDTSICTDLDGVALCQCKSGYFQFNKMDHSCRACEDGYRLENETCMSCPFGLGGLNCGNPYQLITVVIAAAGGGLLLILGIALIVTCCRKNKNDISKLIFKSGDFQMSPYAEYPKNPRSQEWGREAIEMHENGSTKNLLQMTDVYYSPTSVRNPELERNGLYPAYTGLPGSRHSCIFPGQYNPSFISDESRRRDYF"}},
  "tested_on": "SKM9-2",
  "experiment": "Western blotting using SKM9-2 of HEG1 truncated mutants and epitope-fused GPI-anchor proteins",
  "type": "binding",
  "conditions": "cell lysates of transfected HEK293T, SDS-PAGE under reducing conditions, 1 µg/mL SKM9-2",
  "description": "Figure 1 SKM9-2 binding to truncated mutants of HEG1. Schematics of full-length HEG1 (Full) and the truncated mutants are indicated on the left side and the results of western blotting using SKM9-2 are shown on the right side. Truncated amino acid position, which is based on a full-length variant of HEG1 containing exon 6, is shown as a number in the schematic of domain structure. The region of the SKM9-2 epitope is shown as a red square. […] SLURP GPI-anchor protein[18] was used as a fused GPI-anchor protein (violet square). The terminal sequences of the HEG1 peptide are shown in the western blot lane. The samples were resolved by 6% SDS-PAGE (a and b) or 4–15% SDS-PAGE (c) under reducing conditions and were detected by western blotting using SKM9-2. Cyt, cytoplasmic domain; EGFs, EGF related domains; Ser/Thr, serine/threonine rich region; SLURP, secreted lymphocyte antigen-6/urokinase-type plasminogen activator receptor-related peptide; SP, signal peptide; TM, transmembrane domain. Full-length blots are presented in Supplementary Fig. S7.\nFigure 2 Epitope mapping of SKM9-2. Schematic of epitope peptides (left side) and western blots resolved by 4–15% SDS-PAGE (right side) are shown. The HEG1 peptide sequences are indicated in the western blot lane. Each epitope peptide was fused with a signal peptide (dashed line square) and a SLURP GPI-anchor protein (violet square). Full-length blots are presented in Supplementary Fig. S8.\nFigure 3 Alanine scanning of SKM9-2 epitope. […] Cell lysates of transfected HEK293T (upper panel) or transfected ACC-MESO1 (lower panel) were resolved by 4–15% SDS-PAGE and analyzed by western blotting using SKM9-2. (b) S897A mutant of FLAG-tagged HEG1 in HEK293T was resolved by 4–15% SDS-PAGE and analyzed by western blotting using SKM9-2 (upper panel) or anti-FLAG mAb (lower panel). Native HEG1 in ACC-MESO4 and FLAG-tagged HEG1 without mutation in HEK293T were used as controls. Full-length blots are presented in Supplementary Fig. S9.\nSequences of tested HEG1 are shown in Supplementary Dataset. Full-length HEG1 cDNA was synthesized from total RNA purified with TRIzol reagent (Thermo Fisher Scientific) from ACC-MESO-4, using an oligo dT primer and SuperScript II RNase H reverse transcriptase (Thermo Fisher Scientific). cDNA encoding the HEG1 open reading frame was amplified by PCR using PrimeSTAR HS DNA Polymerase (Takara Bio Inc., Shiga, Japan). The HEG1 cDNA was cloned and inserted into the pcDNA3.1(−) mammalian expression vector (Thermo Fisher Scientific). For analyses of N-terminal truncation, we inserted mutants into pFLAG-CMV1 (Sigma-Aldrich Japan K.K., Tokyo, Japan). For analyses of C-terminal deletion lacking the transmembrane domain, we used mutants that were fused with a GPI-anchor protein, SLURP1-gpi[18], in pcDNA3.1(+) (Thermo Fisher Scientific) (Supplementary Dataset). Alanine substituted mutants were prepared using site directed mutagenesis. To produce a soluble epitope peptide, a modified HEG1 signal peptide and a C-terminal tag containing the FLAG tag plus a polyhistidine sequence were used in the mammalian expression vector pEF-BOS[39] (Supplementary Dataset). The plasmid constructs were transfected with Lipofectamine 3000 (Thermo Fisher Scientific). The HEG1 peptide-expressing 293 H clone was obtained by selection with geneticin (Thermo Fisher Scientific).\nMonolayer cells were solubilized with 20 mM Tris buffer (pH 8.0) containing 1% SDS, 1 mM phenylmethylsulfonyl fluoride, 125 mU/mL Benzonase Nuclease (Merck Millipore Co., Tokyo, Japan) (25 µL/cm^2 culture surface area). The lysate (10 µL/lane) was resolved by SDS-PAGE under reducing conditions using 6% polyacrylamide gels or 4–15% precast gels (Bio-Rad Laboratories Inc., Hercules, CA, USA). […]",
  "data": [
    {"molecule": "B1", "values": [
      {"measurement": "recognition by SKM9-2 upon western blot analysis", "value": "not detected"}
    ]}
  ]
}
